# From article PMC3174958
# Target: EPO-hyFc (human)
# Test: Western blotting; purified EPO-hyFc blotted with anti-EPO and anti-human IgG antibodies; gel conditions not told
substance,measurement,value
EPO-hyFc (Fc fusion),stoichiometry N,2
